Measured values published in publication PMC7510951 (Cancer research, 2020).

Target: T1, 6xHis-EYA2 ED (human EYA2 residues 253-538) (human, UniProt O00167 253-538)
T1 sequence (looked up): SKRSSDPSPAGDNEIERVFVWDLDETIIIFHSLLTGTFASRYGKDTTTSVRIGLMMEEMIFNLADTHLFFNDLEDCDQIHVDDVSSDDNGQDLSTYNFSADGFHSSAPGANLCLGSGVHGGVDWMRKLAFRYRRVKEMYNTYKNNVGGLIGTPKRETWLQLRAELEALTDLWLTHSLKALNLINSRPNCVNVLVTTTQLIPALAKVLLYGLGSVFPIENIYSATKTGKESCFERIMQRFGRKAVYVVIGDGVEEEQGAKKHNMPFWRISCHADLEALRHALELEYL
Assay: AlphaScreen or HTRF

- binding result: binds
B1: GST-SIX1 (human SIX1 residues 1-259) (domain or fragment, UniProt Q15475 1-259, looked up)
chain: MSMLPSFGFTQEQVACVCEVLQQGGNLERLGRFLWSLPACDHLHKNESVLKAKAVVAFHRGNFRELYKILESHQFSPHNHPKLQQLWLKAHYVEAEKLRGRPLGAVGKYRVRRKFPLPRTIWDGEETSYCFKEKSRGVLREWYAHNPYPSPREKRELAEATGLTTTQVSNWFKNRRQRDRAAEAKERENTENNNSSSNKQNQLSPLEGGKPLMSSSEEEFSPPQSPDQNSVLLLQGNMGHARSSNYSLPGLTASQPSHG
